From paper PMC10090139

Biological target: endogenous KIT of C57 mouse mast cells (UniProt P05532)
Assay: immunoprecipitation with anti-Flag antibody and immunoblot, densitometric analysis by ImageJ
Details: n = 4, p = 0.0013 (two-tailed unpaired Student's t-test), parent: est. 1.0, read off a plot

Sequence of UniProt P05532 (P05532 25-979): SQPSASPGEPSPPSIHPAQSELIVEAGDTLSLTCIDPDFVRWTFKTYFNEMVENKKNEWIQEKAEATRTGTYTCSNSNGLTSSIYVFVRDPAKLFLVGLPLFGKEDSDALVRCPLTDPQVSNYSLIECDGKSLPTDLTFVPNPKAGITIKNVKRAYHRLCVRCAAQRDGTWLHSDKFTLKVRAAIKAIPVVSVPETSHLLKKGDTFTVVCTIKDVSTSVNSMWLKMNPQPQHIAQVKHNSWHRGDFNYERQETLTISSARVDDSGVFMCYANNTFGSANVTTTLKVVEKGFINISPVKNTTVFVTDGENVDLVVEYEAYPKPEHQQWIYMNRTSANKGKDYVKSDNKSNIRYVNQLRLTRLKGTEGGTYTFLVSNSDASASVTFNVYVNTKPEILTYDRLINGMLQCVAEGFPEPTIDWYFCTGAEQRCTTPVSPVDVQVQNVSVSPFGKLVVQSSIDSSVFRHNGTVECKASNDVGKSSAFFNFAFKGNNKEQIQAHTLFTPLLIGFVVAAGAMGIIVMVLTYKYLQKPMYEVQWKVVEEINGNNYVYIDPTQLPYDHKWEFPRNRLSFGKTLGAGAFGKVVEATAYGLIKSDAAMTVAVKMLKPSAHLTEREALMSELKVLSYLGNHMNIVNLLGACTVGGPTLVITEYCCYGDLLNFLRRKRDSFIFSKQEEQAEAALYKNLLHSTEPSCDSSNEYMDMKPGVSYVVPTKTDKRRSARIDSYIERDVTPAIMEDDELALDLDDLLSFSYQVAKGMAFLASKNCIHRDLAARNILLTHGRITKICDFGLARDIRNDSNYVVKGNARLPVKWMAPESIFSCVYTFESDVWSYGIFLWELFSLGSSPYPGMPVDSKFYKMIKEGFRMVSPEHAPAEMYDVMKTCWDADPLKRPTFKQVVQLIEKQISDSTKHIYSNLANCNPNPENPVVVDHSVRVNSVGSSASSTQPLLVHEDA

ratio to parent: 0.45
Substance: wild-type MCEMP1 with carboxyl-terminal Flag, stably expressed in C57 mouse mast cells (from UniProt Q8IX19) YF
